Biological target: HERV-E peptide … (SEQ ID NO: 1) presented by HLA-A11 on cells (human)
Assay: cell-based or functional assay

B1: HLA-A11 restricted HERV-E reactive T cell receptor (TCR α chain SEQ ID NO: 4, TCR β chain SEQ ID NO: 5) (TCR, V domains shown)
V domain 1: GIQVEQSPPDLILQEGANSTLRCNFSDSVNNLQWFHQNPWGQLINLFYIPSGTKQNGRLSATTVATERYSLLYISSSQTTDSGVYFCAVRGGADGLTFGKGTHLIIQP
V domain 2: DTEVTQTPKHLVMGMTNKKSLKCEQHMGHRAMYWYKQKAKKPPELMFVYSYEKLSINESVPSRFSPECPNSSLLNLHLHALQPEDSALYLCASSPPNEKLFFGSGTQLSVLE
- interferon-γ secretion by ELISA (FIG. 8): > 2 fold over background

— patent publication US20190231821A1 (US Dept. of Health and Human Services, published 2019)
